Source: patent US20080194611A1, “Modulation of Cell Barrier Dysfunction” (priority 2005, published 2008)

Columns and labels:
[1] = system: cultured epithelial cells (MDCK, T-84, Caco-2bbe); test: Epithelial permeability / TEER after purified PA-I; assay type: cell-based; conditions: MDCK monolayers; purified protein
[2] = Cecal instillation of purified PA-I with cytotoxins in mice

B1: PA-I: purified lectin/adhesin protein of P. aeruginosa (protein, UniProt Q05097 2-122, looked up)
PA-I galactophilic lectin: AWKGEVLANNEAGQVTSIIYNPGDVITIVAAGWASYGPTQKWGPQGDREHPDQGLICHDAFCGALVMKIGNSGTIPVNTGLFRWVAPNNVQGAITLIYNDVPGTYGNNSGSFSVNIGKDQS
Question: For B1, which “TEER of epithelial cells” value [1] is on record?
Answer: decreased the TEER of epithelial cells to the same degree as P. aeruginosa

Question: And the “mortality, compound alone” value ([2]; cecal injection)?
Answer: had no effect

Question: What about the “mortality, combination with exotoxin A or elastase” value ([2]; cecal instillation, surgically stressed and sham-operated mice) of the same molecule?
Answer: induced significant mortality
